Laboratory results reported in paper PMC12618784.
Values belong to the binder of their own block, whether it stands above or below them.

Legend:
[1] = biological target: T1, Porin, Q94920; test: pull-down (anti-HA immunoprecipitation) with mass spectrometry; settings: chain shown with the change; 3rd instar larval muscle tissue (mef2-Gal4); four individual biological replicates; read off a plot
T1 chain: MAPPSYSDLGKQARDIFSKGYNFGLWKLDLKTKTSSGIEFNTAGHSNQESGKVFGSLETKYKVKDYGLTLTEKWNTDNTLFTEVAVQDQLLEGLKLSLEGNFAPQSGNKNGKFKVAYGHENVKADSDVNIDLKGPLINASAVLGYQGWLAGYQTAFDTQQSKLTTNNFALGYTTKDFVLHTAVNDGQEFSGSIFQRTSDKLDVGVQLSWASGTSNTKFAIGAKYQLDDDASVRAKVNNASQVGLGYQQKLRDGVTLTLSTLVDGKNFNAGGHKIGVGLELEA

[2] = biological target: T2, Porin::HA, Q94920; test: co-immunoprecipitation (anti-GFP beads), quantified blot; settings: chain shown with the change; transfected Sf21 cells; values normalised to the corresponding amounts of precipitated Dmel\Tmem43; parent: est. 0.75; read off a plot
T2 chain: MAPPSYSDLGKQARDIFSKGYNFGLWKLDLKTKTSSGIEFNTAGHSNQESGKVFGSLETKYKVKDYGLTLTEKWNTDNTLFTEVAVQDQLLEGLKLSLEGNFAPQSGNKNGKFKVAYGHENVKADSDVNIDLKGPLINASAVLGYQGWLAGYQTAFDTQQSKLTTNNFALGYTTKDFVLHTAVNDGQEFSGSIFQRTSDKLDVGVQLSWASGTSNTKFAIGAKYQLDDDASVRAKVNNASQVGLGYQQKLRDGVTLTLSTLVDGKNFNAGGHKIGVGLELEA

[3] = biological target: T3, Mitofilin, P91928; test: TurboID biotin proximity labelling with mass spectrometry; settings: chain shown with the change; 3rd instar larval muscle tissue (mef2-Gal4); parent: 1
T3 chain: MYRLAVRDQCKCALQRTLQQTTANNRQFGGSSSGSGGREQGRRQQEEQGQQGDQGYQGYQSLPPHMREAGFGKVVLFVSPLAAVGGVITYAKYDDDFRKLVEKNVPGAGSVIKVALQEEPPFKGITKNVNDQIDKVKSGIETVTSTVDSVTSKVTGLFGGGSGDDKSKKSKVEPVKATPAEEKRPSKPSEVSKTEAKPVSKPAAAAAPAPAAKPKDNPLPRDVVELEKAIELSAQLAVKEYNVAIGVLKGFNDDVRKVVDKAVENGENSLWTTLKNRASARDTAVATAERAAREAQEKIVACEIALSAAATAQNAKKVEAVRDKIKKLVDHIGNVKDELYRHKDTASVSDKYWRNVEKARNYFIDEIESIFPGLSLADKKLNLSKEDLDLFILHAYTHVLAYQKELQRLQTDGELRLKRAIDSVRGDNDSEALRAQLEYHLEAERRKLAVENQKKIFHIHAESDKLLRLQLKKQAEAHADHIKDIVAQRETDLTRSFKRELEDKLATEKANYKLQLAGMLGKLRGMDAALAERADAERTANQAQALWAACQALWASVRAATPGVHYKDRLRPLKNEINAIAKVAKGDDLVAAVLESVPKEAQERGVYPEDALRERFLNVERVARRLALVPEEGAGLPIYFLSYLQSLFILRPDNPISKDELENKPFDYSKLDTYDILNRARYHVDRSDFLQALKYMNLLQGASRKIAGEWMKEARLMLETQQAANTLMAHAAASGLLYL

[4] = biological target: SERCA, P22700; test: as above; settings: chain shown with the change; 3rd instar larval muscle tissue (mef2-Gal4); parent: 1
[5] = biological target: T4, Sphingosine-1-phosphatase lyase (Sply), Q9V7Y2; test: as above; settings: chain shown with the change; 3rd instar larval muscle tissue (mef2-Gal4); parent: 1
T4 chain: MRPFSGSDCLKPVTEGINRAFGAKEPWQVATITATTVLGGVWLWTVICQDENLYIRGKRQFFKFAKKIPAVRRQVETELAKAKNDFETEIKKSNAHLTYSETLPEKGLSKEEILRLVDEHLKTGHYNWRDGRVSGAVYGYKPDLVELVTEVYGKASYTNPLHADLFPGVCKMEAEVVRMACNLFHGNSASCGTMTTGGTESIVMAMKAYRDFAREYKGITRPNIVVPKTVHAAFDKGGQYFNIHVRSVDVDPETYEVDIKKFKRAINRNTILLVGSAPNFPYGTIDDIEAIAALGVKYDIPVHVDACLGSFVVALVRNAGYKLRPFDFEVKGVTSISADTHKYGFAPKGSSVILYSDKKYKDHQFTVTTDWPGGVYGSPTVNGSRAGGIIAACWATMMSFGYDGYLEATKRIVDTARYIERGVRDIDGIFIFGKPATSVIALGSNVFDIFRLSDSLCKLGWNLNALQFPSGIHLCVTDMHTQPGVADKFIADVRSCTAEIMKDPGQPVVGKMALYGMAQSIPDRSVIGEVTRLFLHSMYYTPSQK

[6] = biological target: T1, Porin, Q94920; test: as above; settings: chain shown with the change; 3rd instar larval muscle tissue (mef2-Gal4); parent: 1

Sequence of SERCA, P22700 (P22700 whole entry, the tested form may be a part): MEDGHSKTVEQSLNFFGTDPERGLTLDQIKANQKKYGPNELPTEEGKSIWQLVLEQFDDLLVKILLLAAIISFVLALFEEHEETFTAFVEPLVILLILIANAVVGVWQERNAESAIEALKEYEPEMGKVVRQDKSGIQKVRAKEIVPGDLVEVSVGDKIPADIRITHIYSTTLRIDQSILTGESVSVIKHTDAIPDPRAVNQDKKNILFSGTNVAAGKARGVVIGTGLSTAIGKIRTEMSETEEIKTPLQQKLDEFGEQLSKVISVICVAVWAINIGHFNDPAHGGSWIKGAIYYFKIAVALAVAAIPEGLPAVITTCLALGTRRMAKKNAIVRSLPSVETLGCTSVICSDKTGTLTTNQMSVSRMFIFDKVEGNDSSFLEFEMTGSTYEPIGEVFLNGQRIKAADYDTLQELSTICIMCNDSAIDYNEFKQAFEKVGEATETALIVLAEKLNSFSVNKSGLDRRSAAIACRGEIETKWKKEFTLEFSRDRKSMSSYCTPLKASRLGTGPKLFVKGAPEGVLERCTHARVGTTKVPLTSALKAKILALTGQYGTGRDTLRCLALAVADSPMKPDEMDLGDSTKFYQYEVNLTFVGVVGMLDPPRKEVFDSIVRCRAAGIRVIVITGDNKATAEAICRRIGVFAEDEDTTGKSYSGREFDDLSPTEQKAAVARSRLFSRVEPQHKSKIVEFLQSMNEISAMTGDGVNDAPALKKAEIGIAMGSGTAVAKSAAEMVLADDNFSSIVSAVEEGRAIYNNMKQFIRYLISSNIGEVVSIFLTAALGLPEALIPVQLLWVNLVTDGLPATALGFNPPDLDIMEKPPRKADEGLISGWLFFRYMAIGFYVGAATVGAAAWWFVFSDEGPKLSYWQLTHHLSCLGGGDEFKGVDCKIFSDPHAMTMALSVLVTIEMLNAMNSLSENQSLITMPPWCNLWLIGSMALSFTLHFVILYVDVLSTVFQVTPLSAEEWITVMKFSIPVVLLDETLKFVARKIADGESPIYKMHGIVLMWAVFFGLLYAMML

ratio to parent [1]: 0.4
B1: Dmel\Tmem43wt::HA, Q9VSB9 p.S333L (protein)
chain: MASLSETLRSHWPIALFGVILFVAGGTELYWNEGRAVHNMMALDEAHADIYSVRFTEEEQEVGLEGRIVHLSGPILVGEPLTEPDYNIQLLAVKLRRRVQMYQWVEEAVEHNYGDSVGTTHSDSRTYYYTREWRDKIVDSRNFYNRHGHTNPSHFPIESHVQVADAVFIGRYELGAEVKEKFNNYQELTSDIRPEDSGVKLHLGIYYHTNDVFNPEVGDLRLLFSFAGMEGEVFSVVGKLSGNKLVPYITSRGVPVLLVYPGGLSVQEVFRLEARAQVLHTWWWRFVGWLLIFFGVTCNTKILRLLFVRVPLLVALAPDPQFPVTGNLLIAFLLALTIAAVAWILHRPVIGACLLLAGASPYVWFTRNLVDYHRLD

response [2]: 0.05
B2: Dmel\Tmem43wt::GFP, Q9VSB9 p.S333L (protein)
chain: MASLSETLRSHWPIALFGVILFVAGGTELYWNEGRAVHNMMALDEAHADIYSVRFTEEEQEVGLEGRIVHLSGPILVGEPLTEPDYNIQLLAVKLRRRVQMYQWVEEAVEHNYGDSVGTTHSDSRTYYYTREWRDKIVDSRNFYNRHGHTNPSHFPIESHVQVADAVFIGRYELGAEVKEKFNNYQELTSDIRPEDSGVKLHLGIYYHTNDVFNPEVGDLRLLFSFAGMEGEVFSVVGKLSGNKLVPYITSRGVPVLLVYPGGLSVQEVFRLEARAQVLHTWWWRFVGWLLIFFGVTCNTKILRLLFVRVPLLVALAPDPQFPVTGNLLIAFLLALTIAAVAWILHRPVIGACLLLAGASPYVWFTRNLVDYHRLD

ratio to parent [3]: 0.17
ratio to parent [4]: 0.17
ratio to parent [5]: 0.23
ratio to parent [6]: 0.13
B3: Dmel\Tmem43wt::TurboID, Q9VSB9 p.S333L (protein)
chain: MASLSETLRSHWPIALFGVILFVAGGTELYWNEGRAVHNMMALDEAHADIYSVRFTEEEQEVGLEGRIVHLSGPILVGEPLTEPDYNIQLLAVKLRRRVQMYQWVEEAVEHNYGDSVGTTHSDSRTYYYTREWRDKIVDSRNFYNRHGHTNPSHFPIESHVQVADAVFIGRYELGAEVKEKFNNYQELTSDIRPEDSGVKLHLGIYYHTNDVFNPEVGDLRLLFSFAGMEGEVFSVVGKLSGNKLVPYITSRGVPVLLVYPGGLSVQEVFRLEARAQVLHTWWWRFVGWLLIFFGVTCNTKILRLLFVRVPLLVALAPDPQFPVTGNLLIAFLLALTIAAVAWILHRPVIGACLLLAGASPYVWFTRNLVDYHRLD
